According to a protein production outcome set (Wang et al. 2014):

Test: label from the status in PepcDB records

Sequence	protein production
MPIHIGSSIPLMVEKMLTEMVKPSKHIPQQTLNLSTLDNDPYNEVIYKACYVFKAKNVADDDNRPEALLREALSDLLGYYYPLSGSLKRQESDRKLQLSCGGDGGGVPFTVATANVELSSLKNLENIDSDTALNFLPVLHVDIDGYRPFALQVTKFECGGFILGMAMSHAMCDGYGEGHIMCALTDLAGGKKKPMVTPIWERERLVGKPEDDQPPFVPGDDTAASPYLPTDDWVTEKITIRADSIRRLKEATLKEYDFSNETITTFEVIGAYLWKSRVKALNLDRDGVTVLGLSVGIRNVVDPPLPDGYYGNAYIDMYVPLTAREVEEFTISDIVKLIKEAKRNAHDKDYLQEELANTEKIIKMNLTIKGKKDGLFCLTDWRNIGIFGSMDFGWDEPVNIVPVVPSETARTVNMFMRPSRLESDMVGGVQIVVTLPRIAMVKFKEEMEALE	failed
MSVLDISIIIANYNTEEFLRNCLNSIKSTVKNVKYEVIVTDNNSKDDSVTMIKNEFPWVKLIESKINGGFAYANNLAIKESSGKYIFLLNTDTVLLKDVIEKMVNYMDENKDVGLLGPKLLNRDMSHQTSVSGFPSFKREFYHIYKLKNILKIPILKKIIVAMSGKIGSKDVEQYMMNFKSIDEPREVQVLVGAALLVRRNVIDKIGMLDERYFMYYEEIDFCYQANKAGFKAVYYPNGEIIHYIGQAATKSRILEHHHHHH	not failed
MTLFDGTPFEWAPGRIEVRARRECGASRKSLVVAAGVSYLARMIFSFDAFVTNALFDRSGRAMFALGDGTVRLQTDEGFVTVEAHGGPLGGAVLAAAVHPSGAGIVTGGDDGRVVWSRIEGGEVVATLIAEVKNKWIEHVAASAASGLIAFTVGKEVHVRDAADPAFARTFPHEKTVSGLAFEPKGRRLASATYGGAYLWYARIADQKPTVLKWAGSHIAVEFSPDGKFLISSMQENQLHGWRLSDGKDMRMGGYPSKIKSVAFFDKGNLLATAGASGAVIWPFAGANGPMGKEAAEIGFSRDSMVVRVAGIDPQPVCIAGQDSGKIWAAHMRNGRIETLKAEKGAPISALSVSADGKRLAWGDESGEAGVLEIPDLSGPRQFVG	failed
MEDRIPVIKRFTGGGTVIVDKSTLFVSLICNKDDVPNVQPYPRSVMAWSGSLYDEVFKSVNGFQLRENDYVFGDRKFGGNAQSIIKNRWIHHTSFLWDYDVRNMAYLKLPSRVPQYRLERDHTDFVCRMKDYIERSDFVEKTVKAVRNQFTLKQVNLEDIDSYAKGGYLKTTRLLTMEELEEAMADTIQNT	failed
MTKGSLSGLPRENIELPDGSVLRRRSLVSDDAFIDAVTADVGHLGEWLRWARHPPTREETERFRAEQDADWDAGRSFVYVLTPPDRHDQVLGGGAMFPNGEVGVLEIGYWVCSPATGRGLATRAAAALTEEGLGLPGVKAMEIHCDRANARSAAIPPRIGYRLLRIEADEPQTVAEAGRSMVWRHDGA	failed
MGTIKIVTDSSITIEPELIKALDITVVPLSVMIDSKLYSDNDLKEEGHFLSLMKASKSLPKTSQPPVGLFAETYENLVKKGVTDIVAIHLSPALSGTIEASRQGAEIAEAPVTVLDSGFTDQAMKFQVVEAAKMAKAGASLNEILAAVQAIKSKTELYIGVSTLENLVKGGRIGRVTGVLSSLLNVKVVMALKNDELKTLVKGRGNKTFTKWLDSYLAKNSHRPIAEIAISYAGEASLALTLKERIAAYYNHSISVLETGSIIQTHTGEGAFAVMVRYE	not failed
MERDENYLRAKKRVENLKAFYIHLTVYILVNLMLFFINISSDSSKLWFLYPLAGWGIGIVIHALTTFPVGIFGKEWEERKIKEYMEKDK	failed
MGRKSNRAKEKKQRRLEERAAMDAVCAKVDAANKLEDPLSAMPVFKKYDRNGLNLQIECKRVTALSPDTVEWAYELTRANMQTLYEQSEWGWKEREKREEMKDERAWYLLARDADSTPLAFSHFRFDVECGDEVLYCYEVQLESKVRRKGLGKFLIQILQLIANSTQMKKVMLTVFKHNHGAYQFFREALQFEIDETSPSMSGCCGEDCSYEILSRRTKYGEVSGHAHGGHCGGCCH	not failed
MSDPGNEQNGDGIDPAIVEVLLVLREAGIENGATPWSLPKIAKRAQLPMSVLRRVLTQLQAAGLADVSVEADGRGHASLTQEGAALAAQLFPDPF	not failed
MSDTPQAILLMGPTASGKTGLALELARRFPVEIVSVDSALVYRDMDIGTAKPTAEEMAACPHHLIDVISPLQSYSAAQFHADANRLIADIQARGKLPLLVGGTMLYYKALLEGLSDLPQADAALRAELDADAALLGWPAMHARLAELDPATASRLNPNDSQRIHRALEVCLLSGKPMSELIAQGKEAAAGFRFLPLALVPRERGWLHARIAERFRIMLEQGFLDEVSRLRAKYPELTLNLPSMRCVGYRQAWEHQDGLYGHDEFVERGVAATRQLAKRQLTWTRSLDAIPVDAQRDGLAGLLGDAVDDFLAGRPPAESLRYAGDFLEHHHHHH	not failed
MPKGLMLTDLAIAGLLLIVAKVIRVHTPLLQRMYIPSAVLAGLFGLVFGPAMLDLLPWTDTFTANASLLTAALFSALGLATDVPSPKVVAQRAGSLWAFNQIASVSQWLFAAMFGLLLTTFFWPEINPGFGVTMSAGFMGGHGSASVVGDIFTGLGWEDGFTLGLTFATVGIFISISIGMLMLQFALKMGWIRSFTTFDSMDEHERKGLVKPTEQEPVMKDTMSSLSVDSFAIHAALVVVVTAFSYVAANYLSSFHDKVQIPTFVTGFLGGMLVRIVAKQTKASRYLCDGAFKHAAGISTDYLIIFGISAIKITVLAQYLAPMIVLAIGGIAFTLWLIFWVAPRIMGDDWFEKGIFSWGWLTGTVAMGIALLRIVDPKMRSKVLDDYAIAYVPGSITDIFIISLMPIAMYNGMEWQALGVGLAYIAVVLFIWRFVFKRSGQTVTDAS	failed
MADQSFAVLGLGKFGMALTVALLKAEQDVLVIDSNEEVINDVAHLVTHAVIADATDEDELRDLDIGSFDHVFVTMGENVEGSIITTMLAKKLGAPDVTTRANNHNHRLVLEKIGADHVIEPEQDMARQLIFRQLHPNVVNYFNLSKNISLIEVSVENSRFFNQSLGDLDFRKNYDVSVIGIVHDGKLNQVPLATDVIAPHDQITLIGSNKAVQRLDDILREEK	failed
MEPRVGNKFRLGRKIGGGSFGEIYLGTNIQTNEEVAIKLENVKTKHPQLLYESKLYKVLQGGTGVPNVKWYGVEGDYNVLVIDLLGPSLEDLFNFCSRKLSLKTVLMLADQMINRIEFVHQKSFLHRDIKPDNFLMGLGRRANQVYVIDFGLAKKYRDSNHQHIPYRENKNLTGTARYASMNTHLGIEQSRRDDLESLGFVLMYFLKGSLPWQGLKAGNKKQKYEKISEKKVSTSIEALCRGYPSEFASYFHYCRSLRFDDKPDYAYLKRLFRDLFIREGFQFDYVFDWTILKYQQSQISTPPPRHHGPVVGPSSALPPAITSAERPSGGDEARPSGWSSGIPRRNSGQIFNSGSLAKQKAPVSSDPAISKDVVLSSSSFLRATGSSRRAAVSSSREAAVLGTDSEPSNPQIVEAGSGSNSKIPVSRNSPIVSSEINKLSSPSRATTSVMKNYEANLKGIESLHF	not failed
MPGEEVSQAKQQLKLIIDAYLSESDVDNVLAACDFADLAHSGITRKSGEPYILHPIAVSCILAHMRLDAETLMAALLHDVIEDTEHTKDEIGERFGEVVADLVDGVTKLTHSSDKQYNKAASFRKILQATLQDPRVIIIKLADRYHNMTTLDALRPDKRARIAQETFDIFVPMARIVGMNEMGDNLELLCYQNLDLDMYNNVQEALLETKPRRCEYQTKWEHHLGELLTTYHIHGRVKKKNNNIELLRHFVKNEIDLQELTHSHAFEIILNSISDCDRLVDALKENFQILHFEDHIRRPLPGGNQSIMMKLKGEQTTLSLTIQTELMRKAARFGVVLGENAPQACRSAIQASMQNLTTLIDGECAKTTFNDLLDYLHQEKIWVYTPHGHLHELPQGATVIDFAYSASLFLGNHAVGAKIDGEIRPLSTPLVSGQVIDVITDVLATPNPDWLSFINTQKARRAIQNMLRDQDIEEQLLVGQQALNRALKLFNRSMHDLSESDWLNVLQWRHVENKEALFEQIAVGDLLPQLVANHLYAQDTSDKTGHAPDRLIQGTEGVDVKYAHCCNPILGDPIQGHLSRRGLIVHRARCHNLLHEQHLHPENIMPLQWTSDDLDDVSFTAYLCIDMPLDGEQISELIYLCRKSHTGVEMVQPHGDHTYVNIVVNNRKVVAQIIRDLRMLFGFPRVSRLFTPAAVTESVKIKVS	failed
MVDKGVVNNVDECVEGTDHCHIDAICQNTPRSYKCICKSGYTGDGKHCKDVDECEREDNAGCVHDCVNIPGNYRCTCYDGFHLAHDGHNCLDVDECAEGNGGCQQSCVNMMGSYECHCRDGFFLSDNQHTCIQRPEEGMNCMNKNHGCAHICRETPKGGIACECRPGFELTKNQRDCKLTCNYGNGGCQHTCDDTEQGPRCGCHVKFVLHTDGKTCIETCAVNNGGCDSKCHDAATGVHCSCPVGFMLQPDRKTCKDIDECRLHNGGCDHICRNTVGSFECSCKKGYKLLINERSCQDIDECSFDRTCDHMCVNTPGSFQCLCHRGYLLYGISHCGDVDECSINKGGCRFGCINTPGSYQCTCPAGQGRLHWNGKDCTEPVKCQSSSGASKAMLSCSRSGKKDTCALTCPSRARFLPESENGFTVSCGTPSPKAAAGRAIHPGNSTISNSCHEAAVLPVKQRASFKIKDAKCRLHLRNKGKAEEASGRTPGPGGASCSDCQVTFIHLKCDSSRKGKGRRARTPPGKEVTRLTLELEAEVRAEETTAGCGLTCLRQRMERRLKGSLKMLRKSINQDRFLLRLAGLDYELAHKPGLAAGDRAELVEVCRPGQHRAGTKCVSCPQGTYYHGQTEQCVPCPAGTFQEREGQLSCDLCPGSDAHGPLGATNVTTCAGQCPPGQHSGDGFKPCQPCPRGTYQPEAGRTLCFPCGGGLTTKHEGAVSFQDCDTKVQCSPGHYYNTSIHRCIRCAVGSYQPDFRQNFCTRCPGNTSADFDGSTSVAQCKNRQCGGELGEFTGYIESPNYPGNYPAGVECIWNINPPPKRKILIVVPEIFLPSEDECGDVLVMRKNSSPSSITTYETCQTYERPIAFTARSRKLWINFKTSEANSARGFQIPYVTYDEDYEQLVEDIVRDGRLYASENHQEILKDKKLIKAFFEVLAHPQNYFKYTEKHKEMLPKSFIKLLRSKVSSFLRPYK	failed
MIDGNSIIVSSPEVAFPIAVRYAWADNPICNLYNGVNLPASPFRTDDWQGILMVINRYSCFDLPSEIDVTHKKITMNKLIYLVIFSFLSTSIYAQMKDLVQYVNTLQGTDSHFGLSYGNTYPTTGMPYAMHTWSAQTGKNGEGWKYQYAVDNIRGFCQSHQCSPWMSDYAVYSFMPMVGKLVVNQEMRATKFSHDNEIAKPHYYKVMLDNGITTEMAPTTRGVHLRFSYPSTEDAYLVIDGYTDMSEIKIDPAKRQISGWVNNQRFVNNSKTFRSYFVVQFDKAFEDYGMWENQKDEIYPKKLEGEGKGYGAYIKFKKGSKVQAKAASSYISAEQAVITLNDELGKDKNLEATKIRGHKTWNELLNRIQVEGGTDEQMKTFYSCLFRANLFSRKFYERKANGEPYYYSPYDGKVYDGYMYTDNGFWDTFRSQFPLTNILHPTMQGRYMNALLAAQEQCGWLPSWSAPGETGGMLGNHSISLLADAWAKGIRTFDPEKALKAYAHEAMNKGPWGGANGRGFWKEYFELGYVPYPESMGSSAQTMEYAYDDFCGYQLAKMTGNKHYQEVFARQMYNYKNVFDPSIGFMRGKGVDGKWQEPFDPLEWGGPFCEGNAWHYTWSVFHDVEGLIDLFGSDQRFTTKMDSVFTLPSTIKPGTYGGVIHEMKEMELSGMGQYAHGNQPIQHMPYLYSYAGQPWKTQYWVRQIVERLYNSTERGYPGDEDQGGMSSWYILSSLGIYAVCPGTDEYVIGSPLFKKATITMENGNKFVIEANNNSKENLYIQSATLNGRVLDKNFIRYDDIADGGIIRFEMGSQPNKERCTSKYAAPFSLSKE	failed
IFIGNLDPEIDEKLLYDTFSAFGVILQTPKIMRDPDTGNSKGYAFINFASFDASDAAIEAMNGQYLCNRPITVSYAFKKDSKG	not failed
